According to patent US7585952 (BIOTECHNOL S A, dated 2009):

Tests used:
human ErbB2 receptor [1] = target: T1, human ErbB2 receptor (human, UniProt P04626 23-1255); experiment: cell-based or functional assay
[2] = target: T2, EGF receptor (EGFR, ErbB1) on A431 cells (human, UniProt P00533 25-1210); experiment: flow cytometry on A431 cells (EGFR at 2x10^6 receptors per cell)
T2 construct: whole, on cells; A431 cells also express ErbB2 at very low levels; also called homologous EGF receptor

human ErbB2 receptor [3] = target: T1, human ErbB2 receptor; experiment: cell-based or functional assay; remark: listed apart in the source

Row | Binder | IC50 of inhibition of SKBR3 cell proliferation, 72 h (human ErbB2 receptor [1]) | IC50 of inhibition of SKBR3 cell proliferation, expressed as scFv concentration in the phage preparation (human ErbB2 receptor [1]) [µg/mL] | antitumor activity on SKBR3 cells relative to soluble Erbicin (human ErbB2 receptor [1]) [fold] | binding result [2] | Growth Inhibition (IC50, cfu/ml), BT-474 cells, 96 h (human ErbB2 receptor [3]) [cfu/ml] | Growth Inhibition (IC50, cfu/ml), MDA-MB453 cells, 96 h (human ErbB2 receptor [3]) [cfu/ml] | Growth Inhibition (IC50, cfu/ml), NIH 3T3 (ErbB2-trasf.) cells, 96 h (human ErbB2 receptor [3]) [cfu/ml] | Growth Inhibition (IC50, cfu/ml), SK-OV-3 cells, 96 h (human ErbB2 receptor [3]) [cfu/ml] | Growth Inhibition (IC50, cfu/ml), SKBR3 cells, 96 h (human ErbB2 receptor [3]) [cfu/ml]
1 | hERB-RNase (Erbicin fused to human pancreatic ribonuclease) (other) QVQLLQSAAEVKKPGESLKISCKGSGYSFTSYWIGWVRQMPGKGLEWMGIIYPGDSDTRYSPSFQGQVTISADKSISTAYLQWSSLKASDTAVYYCARWRDSPLWGQGTLVTVSSGGGGSGGGGSGGSALQAVVTQEPSFSVSPGGTVTLTCGLSSGSVSTSYYPSWYQQTPGQAPRTLIYSTNTRSSGVPDRFSGSILGNKAALTITGAQADDESDYYCVLYMGSGQYVFGGGTKLTVLGAAASGGPEGGSKESRAKKFQRQHMDSDSSPSSSSTYCNQMMRRRNMTQGRCKPVNTFVHEPLVDVQNVCFQEKVTCKNGQGNCYKSNSSMHITDCRLTNGSRYPNCAYRTSPKERHIIVACEGSPYVPVHFDASVEDST | ~20 nM |  |  |  |  |  |  |  | 
2 | Erbicin (soluble human anti-ErbB2 scFv) (scFv, not shown: small tags and cut ends) scFv: QVQLLQSAAEVKKPGESLKISCKGSGYSFTSYWIGWVRQMPGKGLEWMGIIYPGDSDTRYSPSFQGQVTISADKSISTAYLQWSSLKASDTAVYYCARWRDSPLWGQGTLVTVSSGGGGSGGGGSGGSALQAVVTQEPSFSVSPGGTVTLTCGLSSGSVSTSYYPSWYQQTPGQAPRTLIYSTNTRSSGVPDRFSGSILGNKAALTITGAQADDESDYYCVLYMGSGQYVFGGGTKLTVLGHHHHHH | 6.4 µg/mL |  |  |  |  |  |  |  | 
3 | Ph-Erbicin (human anti-ErbB2 scFv from type A clone, displayed on phage) (scFv, Tested as whole phage particles carrying the scFv; also called A type phage clone; clone A) scFv: QVQLLQSAAEVKKPGESLKISCKGSGYSFTSYWIGWVRQMPGKGLEWMGIIYPGDSDTRYSPSFQGQVTISADKSISTAYLQWSSLKASDTAVYYCARWRDSPLWGQGTLVTVSSGGGGSGGGGSGGSALQAVVTQEPSFSVSPGGTVTLTCGLSSGSVSTSYYPSWYQQTPGQAPRTLIYSTNTRSSGVPDRFSGSILGNKAALTITGAQADDESDYYCVLYMGSGQYVFGGGTKLTVLG | 2.8e+10 cfu/ml | 0.0013 | ~5000 | no binding | 2.5e+11 | 1.4e+11 | 3.5e+11 | 4e+11 | 1.2e+10
